Molecular target: human IL-6 (human) (UniProt P05231)
Assay: cell-based or functional assay

Sequence of human IL-6 (human) (P05231 30-212 limits assumed): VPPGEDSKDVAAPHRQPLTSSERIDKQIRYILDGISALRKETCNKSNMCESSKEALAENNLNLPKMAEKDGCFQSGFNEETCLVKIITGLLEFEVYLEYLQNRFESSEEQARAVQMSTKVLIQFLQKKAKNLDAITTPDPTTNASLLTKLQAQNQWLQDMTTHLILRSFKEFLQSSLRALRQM

- inhibition of growth of XG6 cells in 40 pM IL-6, IC50: 3 nM
- inhibition of growth of XG7 cells in 40 pM IL-6, IC50: 6 nM
B1: BE8 (mouse monoclonal anti-IL6 neutralizing antibody) (antibody, from another filing, V domains shown)
VH: QVTLKESGPGILKPSQTLSLTCSFSGFSLSTSGMGVGWIRQPSGKGLEWLAHIWWDDDKYYNPSLKSQLTISKDTSRNQVFLKITSVDTADTATYYCARSYDDYLYYALDYWGQGTSVTVSS
VL: DIVMTQSPATLSVTPGDRVSLSCRASQSISDYLHWYQQKSHESPRLLIKSVSQSISGIPSRFSGSGSGSDFTLSINSVEPEDVGVYYCQNGHSFPLTFGAGTKLELK

— patent US20230183379A1
